Legend:
[1] = molecular target: RNase J (His-tagged, wild type) (Helicobacter pylori) (UniProt P56185); assay: AUC
[2] = molecular target: RNase J D185A (His-tagged) (Helicobacter pylori) (UniProt P56185); assay: AUC
[3] = molecular target: RNase J K649A (His-tagged) (Helicobacter pylori) (UniProt P56185); assay: AUC
[4] = molecular target: RNase J K649Q (His-tagged) (Helicobacter pylori) (UniProt P56185); assay: AUC
[5] = molecular target: the molecule itself; assay: crystal structure

How did the percent of the protein as dimer [1] turn out when “RNase J (His-tagged, wild type) (from UniProt P56185 1-689) (enzyme)” was run?
Its percent of the protein as dimer is 40%.

And the percent of the protein as monomer [1]?
The percent of the protein as monomer was 60%.

What about the stoichiometry N [1] of the same molecule?
Its stoichiometry N is 2.

For “RNase J D185A (His-tagged) (from UniProt P56185 1-689) (enzyme)”, which stoichiometry N [2] is on record?
The stoichiometry N was 2.

For “RNase J K649A (His-tagged) (from UniProt P56185 1-689) (enzyme)”, which stoichiometry N [3] is on record?
The stoichiometry N was 2.

How did the stoichiometry N [4] turn out when “RNase J K649Q (His-tagged) (from UniProt P56185 1-689) (enzyme)” was run?
The stoichiometry N was 2.

How did the stoichiometry N [1] turn out when “RhpA (His-tagged) (from UniProt O25029 1-492) (enzyme)” was run?
The stoichiometry N was 1 RNase J:RhpA.

B1: RNase J residues 139-691 (crystallised construct) (domain or fragment, H. pylori strain 26695, UniProt P56185 137-689, looked up)
chain: SKASVKITPLGGLGEIGGNMMVIETPKSAIVIDAGMSFPKEGLFGVDILIPDFSYLHQIKDKIAGIIITHAHEDHIGATPYLFKELQFPLYGTPLSLGLIGSKFDEHGLKKYRSYFKIVEKRCPISVGEFIIEWIHITHSIIDSSALAIQTKAGTIIHTGDFKIDHTPVDNLPTDLYRLAHYGEKGVMLLLSDSTNSHKSGTTPSESTIAPAFDTLFKEAQGRVIMSTFSSNIHRVYQAIQYGIKYNRKIAVIGRSMEKNLDIARELGYIHLPYQSFIEANEVAKYPDNEILIVTTGSQGETMSALYRMATDEHRHISIKPNDLVIISAKAIPGNEASVSAVLNFLIKKEAKVAYQEFDNIHVSGHAAQEEQKLMLRLIKPKFFLPVHGEYNHVARHKQTAISCGVPEKNIYLMEDGDQVEVGPAFIKKVGTIKSGKSYVDNQSNLSIDTSIVQQREEVASAGVFVATIFVNKNKQALLESSQFSSLGLVGFKDEKPLIKEIQGGLEVLLKSSNAEILNNPKKLEDHTRNFIRKALFKKFRKYPAIICHAHSF
Does B1 bind [5]?
Result: binds

— paper doi:10.1101/2021.08.09.455701 (bioRxiv, 2021)
